Where two headings read alike, the source gives them in different places.
Experiments:
Experiment in all cases: BLI
[1] = biological target: T1, human FcRIIA protein (MednaBio, E1033) (human, UniProt P12318 34-218, limits assumed)
T1 construct: Bought; also called FcγRIIA
T1 sequence (looked up): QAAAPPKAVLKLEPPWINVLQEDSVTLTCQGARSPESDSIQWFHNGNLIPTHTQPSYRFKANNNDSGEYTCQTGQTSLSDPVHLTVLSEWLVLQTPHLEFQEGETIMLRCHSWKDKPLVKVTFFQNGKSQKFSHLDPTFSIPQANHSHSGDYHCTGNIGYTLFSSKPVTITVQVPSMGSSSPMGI

[2] = biological target: T2, human FcRIIB/C protein (MednaBio, E1034) (human, UniProt P31994 43-217, limits assumed)
T2 construct: Bought as FcRIIB/C; also called FcγRIIB; CD32B
T2 sequence (looked up): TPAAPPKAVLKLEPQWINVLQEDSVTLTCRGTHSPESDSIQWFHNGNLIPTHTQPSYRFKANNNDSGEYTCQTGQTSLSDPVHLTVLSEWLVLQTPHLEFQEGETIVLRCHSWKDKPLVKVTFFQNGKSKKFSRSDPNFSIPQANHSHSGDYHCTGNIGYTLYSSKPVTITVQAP

[3] = biological target: T3, human FcRI protein (MednaBio, E1031) (human, UniProt P12314 16-288, limits assumed)
T3 construct: Bought; loaded on anti-penta-HIS biosensors; also called FcγRI
T3 sequence (P12314 16-288 limits assumed): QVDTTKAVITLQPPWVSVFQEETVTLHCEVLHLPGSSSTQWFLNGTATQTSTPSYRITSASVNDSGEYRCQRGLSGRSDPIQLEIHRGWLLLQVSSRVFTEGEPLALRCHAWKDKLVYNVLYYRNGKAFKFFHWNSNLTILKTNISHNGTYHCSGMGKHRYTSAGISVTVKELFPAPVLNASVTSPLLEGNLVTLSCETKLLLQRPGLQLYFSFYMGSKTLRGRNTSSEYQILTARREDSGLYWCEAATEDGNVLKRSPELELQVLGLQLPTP

[4] = biological target: T4, human FcRn protein (MednaBio, E1032) (human, UniProt P55899 24-297; P61769 21-119)
T4 construct: Bought; assays at pH 6
T4 sequence (P55899 24-297 limits assumed, form in doubt, chain 1 of 2): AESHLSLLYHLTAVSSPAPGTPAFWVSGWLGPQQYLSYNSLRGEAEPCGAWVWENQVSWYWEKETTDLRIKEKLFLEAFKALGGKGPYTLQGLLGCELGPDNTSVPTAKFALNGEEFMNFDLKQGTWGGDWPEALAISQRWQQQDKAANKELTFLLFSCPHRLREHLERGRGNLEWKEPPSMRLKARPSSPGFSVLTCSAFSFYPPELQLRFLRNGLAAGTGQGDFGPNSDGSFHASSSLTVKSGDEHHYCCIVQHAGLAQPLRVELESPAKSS
T4 sequence (P61769 21-119 limits assumed, form in doubt, chain 2 of 2): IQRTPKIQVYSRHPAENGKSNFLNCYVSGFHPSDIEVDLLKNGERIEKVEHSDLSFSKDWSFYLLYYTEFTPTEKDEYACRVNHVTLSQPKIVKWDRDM

[5] = biological target: T5, human FcRIIIA-V158 protein (MednaBio, E1035) (human, UniProt P08637 17-208)
T5 construct: Bought; also called FcγRIIIA(V); FcgRIIIA(V)
T5 sequence (P08637 17-208 F176V): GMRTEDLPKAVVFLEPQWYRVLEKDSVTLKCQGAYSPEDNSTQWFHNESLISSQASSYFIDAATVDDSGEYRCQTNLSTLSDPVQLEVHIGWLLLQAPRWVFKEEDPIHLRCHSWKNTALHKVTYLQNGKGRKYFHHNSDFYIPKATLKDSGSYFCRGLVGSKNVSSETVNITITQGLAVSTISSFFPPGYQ

[6] = biological target: T2, human FcRIIB/C protein (MednaBio, E1034); remark: listed apart in the source
[7] = biological target: T1, human FcRIIA protein (MednaBio, E1033); remark: listed apart in the source
In short: (§1)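 Binding was measured by biolayer interferometry on an Octet Red96 System, with commercial human Fc receptor proteins loaded at 20 μg/mL onto anti-penta-HIS biosensors. Sensors were dipped into an 8-point 1:3 dilution series of test IgG starting at 300 nM in PBS with 0.1% BSA and 0.02% Tween-20. Fcγ receptor assays ran at pH 7.2 and FcRn assays at pH 6. Kd, kon and koff came from global fitting to a 1:1 binding model.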

[8] = biological target: T2, human FcRIIB/C protein (MednaBio, E1034); remark: listed apart in the source
In short: as §1

[9] = biological target: T3, human FcRI protein (MednaBio, E1031); remark: listed apart in the source
In short: as §1

[10] = biological target: T4, human FcRn protein (MednaBio, E1032); remark: listed apart in the source
In short: as §1

[11] = biological target: T5, human FcRIIIA-V158 protein (MednaBio, …); remark: listed apart in the source
In short: as §1

[12] = biological target: T1, human FcRIIA protein (MednaBio, E1033); remark: listed apart in the source
In short: as §1

[13] = biological target: T2, human FcRIIB/C protein (MednaBio, E1034); remark: listed apart in the source
In short: as §1

[14] = biological target: T3, human FcRI protein (MednaBio, E1031); remark: listed apart in the source
In short: as §1

[15] = biological target: T4, human FcRn protein (MednaBio, E1032); remark: listed apart in the source
In short: as §1

[16] = biological target: T5, human FcRIIIA-V158 protein (MednaBio, …); remark: listed apart in the source
In short: as §1

B1: wild-type human IgG1 control (antibody)
heavy: not shown
light: SYELTQPPSVSVSPGQTASITCSGDNIGDQYAHWYQQKPGQSPVLVIYQDKNRPSGIPERFSGSNSGNTATLTISGTQAMDEADYYCATYTGFGSLAVFGGGTKLTVLGQPKAAPSVTLFPPSSEELQANKATLVCLISDFYPGAVTVAWKADSSPVKAGVETTTPSKQSNNKYAASSYLSLTPEQWKSHRSYSCQVTHEGSTVEKTVAPTECS
notes: Control IgG
Kd [1]: 56 nM
koff [1]: 0.032 s⁻¹
kon [1]: 570000 M⁻¹ s⁻¹
Kd [2]: 130 nM
koff [2]: 0.016 s⁻¹
kon [2]: 120000 M⁻¹ s⁻¹
Kd [3]: 5.6 nM
koff [3]: 0.0012 s⁻¹
kon [3]: 220000 M⁻¹ s⁻¹
Kd [4]: 16 nM
koff [4]: 0.008 s⁻¹
kon [4]: 480000 M⁻¹ s⁻¹
Kd [5]: 60 nM
koff [5]: 0.027 s⁻¹
kon [5]: 450000 M⁻¹ s⁻¹
Kd [6]: 130 nM
koff [6]: 0.016 s⁻¹
kon [6]: 120000 M⁻¹ s⁻¹
Kd [7]: 56 nM
koff [7]: 0.032 s⁻¹
kon [7]: 570000 M⁻¹ s⁻¹
Kd [8]: 130 nM
koff [8]: 0.016 s⁻¹
kon [8]: 120000 M⁻¹ s⁻¹
Kd [9]: 5.6 nM
koff [9]: 0.0012 s⁻¹
kon [9]: 220000 M⁻¹ s⁻¹
Kd [10]: 16 nM
koff [10]: 0.008 s⁻¹
kon [10]: 480000 M⁻¹ s⁻¹
Kd [11]: 60 nM
koff [11]: 0.027 s⁻¹
kon [11]: 450000 M⁻¹ s⁻¹
Kd [12]: 56 nM
koff [12]: 0.032 s⁻¹
kon [12]: 570000 M⁻¹ s⁻¹
Kd [13]: 130 nM
koff [13]: 0.016 s⁻¹
kon [13]: 120000 M⁻¹ s⁻¹
Kd [14]: 5.6 nM
koff [14]: 0.0012 s⁻¹
kon [14]: 220000 M⁻¹ s⁻¹
Kd [15]: 16 nM
koff [15]: 0.008 s⁻¹
kon [15]: 480000 M⁻¹ s⁻¹
Kd [16]: 60 nM
koff [16]: 0.027 s⁻¹
kon [16]: 450000 M⁻¹ s⁻¹

B2: wild-type human IgG4 control (antibody)
heavy: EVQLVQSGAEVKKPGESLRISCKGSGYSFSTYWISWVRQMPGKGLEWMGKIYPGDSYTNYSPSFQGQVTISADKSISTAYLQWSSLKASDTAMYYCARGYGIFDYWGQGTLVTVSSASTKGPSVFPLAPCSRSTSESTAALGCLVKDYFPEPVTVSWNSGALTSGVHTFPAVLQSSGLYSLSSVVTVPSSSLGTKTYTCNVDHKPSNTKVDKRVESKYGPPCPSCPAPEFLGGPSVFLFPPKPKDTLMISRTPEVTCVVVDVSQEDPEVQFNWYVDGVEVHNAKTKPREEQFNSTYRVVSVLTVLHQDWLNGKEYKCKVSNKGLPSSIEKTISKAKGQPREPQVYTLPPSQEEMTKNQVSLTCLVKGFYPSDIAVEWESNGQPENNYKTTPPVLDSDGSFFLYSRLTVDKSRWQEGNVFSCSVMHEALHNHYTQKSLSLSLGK
light: SYELTQPPSVSVSPGQTASITCSGDNIGDQYAHWYQQKPGQSPVLVIYQDKNRPSGIPERFSGSNSGNTATLTISGTQAMDEADYYCATYTGFGSLAVFGGGTKLTVLGQPKAAPSVTLFPPSSEELQANKATLVCLISDFYPGAVTVAWKADSSPVKAGVETTTPSKQSNNKYAASSYLSLTPEQWKSHRSYSCQVTHEGSTVEKTVAPTECS
notes: Control IgG
Kd [1]: 400 nM
koff [1]: 0.055 s⁻¹
kon [1]: 140000 M⁻¹ s⁻¹
Kd [2]: 400 nM
koff [2]: 0.05 s⁻¹
kon [2]: 140000 M⁻¹ s⁻¹
Kd [3]: 4.8 nM
koff [3]: 0.0017 s⁻¹
kon [3]: 360000 M⁻¹ s⁻¹
Kd [4]: 18 nM
koff [4]: 0.012 s⁻¹
kon [4]: 640000 M⁻¹ s⁻¹
Kd [5]: 550 nM
koff [5]: 0.092 s⁻¹
kon [5]: 170000 M⁻¹ s⁻¹
Kd [6]: 400 nM
koff [6]: 0.05 s⁻¹
kon [6]: 140000 M⁻¹ s⁻¹
Kd [7]: 400 nM
koff [7]: 0.055 s⁻¹
kon [7]: 140000 M⁻¹ s⁻¹
Kd [8]: 400 nM
koff [8]: 0.05 s⁻¹
kon [8]: 140000 M⁻¹ s⁻¹
Kd [9]: 4.8 nM
koff [9]: 0.0017 s⁻¹
kon [9]: 360000 M⁻¹ s⁻¹
Kd [10]: 18 nM
koff [10]: 0.012 s⁻¹
kon [10]: 640000 M⁻¹ s⁻¹
Kd [11]: 550 nM
koff [11]: 0.092 s⁻¹
kon [11]: 170000 M⁻¹ s⁻¹
Kd [12]: 400 nM
koff [12]: 0.055 s⁻¹
kon [12]: 140000 M⁻¹ s⁻¹
Kd [13]: 400 nM
koff [13]: 0.05 s⁻¹
kon [13]: 140000 M⁻¹ s⁻¹
Kd [14]: 4.8 nM
koff [14]: 0.0017 s⁻¹
kon [14]: 360000 M⁻¹ s⁻¹
Kd [15]: 18 nM
koff [15]: 0.012 s⁻¹
kon [15]: 640000 M⁻¹ s⁻¹
Kd [16]: 550 nM
koff [16]: 0.092 s⁻¹
kon [16]: 170000 M⁻¹ s⁻¹
